Measurements taken from publication PMC3248148.

Molecular target: human p23 co-chaperone (human) (UniProt Q15185)
Experiment: SEC; HiPrep Sephacryl S-200; each protein alone; 50mM Hepes, 150mM NaCl, 50mM KCl, 10mM MgCl2, 1mM DTT, pH 7.5; molecular weight interpolated from standards

stoichiometry N: 2
Substance: human p23 co-chaperone (from UniProt Q15185 1-160) (natural protein)
